This is an account of results in the DeepSol protein solubility set.

The nature of the data set: soluble on expression in E. coli; label from the status in PepcDB or PDB records.
Consider “MGSSHHHHHHSSGLVPRGSHMLPKPDQINQIIVLLNIYHGKKKPSEIAREMDITLQGVIYHMKNLRRDGLIDEENRITKKGFDFLYRQLSDMREFITSNILDLDSLMVWEAIAAEDITAGSTVHLRMKGGYLYAFLSGGGATGRAVNDSQAGGLVGITNLSGLIDVNFGKLSIIVIPDSIDGGISERLKKAAADLSPALFAAMGEAGYVALKNIGIEPDIEYSALQAAFEASVRGQNVVLVTSRRRLHYSMAEIPQLENRYNPVKANITDLS”, for which the “soluble on expression in E. coli” value is on record as “soluble”.

As for “MSLEFYIADFKQIKEGKVTDIYFERTLKTLEYLGIKDAKVRMEVHSYGLPKGYEWALFTGLEEVLHLLEGVPVNVYAMPEGTLFKEIEPVMIIEGNYLDFGIYETAFLGILRHYSSISTKAARLKFLAMDKTLFFFGLRSLHPALAPMADRAAYIGGMDGVSGAMSKEYLGVDPSGTMPHALMLIVGDNVKAWKAFDEAMGSEVPRITLVDTFEDERTEALKAATLLGKKLYGIRLDTPSSRRGNFRKIIQEVKWTLKIHGYDHVKIFASGGIDEDDIINLRDIVDGFGIGTSIAFPPSVDFSADIVEKFVDGKWVPFTKRGKWPGAKQVYRCGKLNDVITLMDQEHPSSDCKPLLQKYMENGKIIKPLPSPKEIREYVIKQLTELQSSEGHHHHHH”, the “soluble on expression in E. coli” value is listed as “soluble”.

With “MGSDKIHHHHHHMTSFVLSSKNAFDYLILQGLCTQNEKSLSKIELVPAKNFNLLISLPDNRKLLIKQEPHKREGKTSGEFLKEWRVHNFLQTFPELSDIRSYFSEAVHFDPENSIFVFNYLTNYRDLMDFYVERNLKLFPIKIAMLVGTTLASIHRLSIDRQEYQEFFLNKNIFGQGIPNLNLGMDRVSPAVFGKLPTDGLKFLSLYQRYDSLGQAIAELNNALIPCCLTHNDLKLNNILLSLNWEEAAFNESSSDESIIRLIDWERGAWGDPASDLGTLIASYLQLWLHSMITSKTMAIQESLRLATTPLHLLQPSIRELVIAYLSAFPEIIELHPDFLQRVMQFCGFALIKSIQAKLQHEKTFGNKGICILQVAKSLLCRPEASIPTIFGVDASDLSPINLSPASK”, the “soluble on expression in E. coli” value is “not soluble”.

Regarding “GPGSMTAVSNAAAVQATSGANGGSAVVTFFTTTYSKPMPEQSFSVPLNVLPDGLNQLVQNVLGVEGQNFDFLYKDEYIGTTLFRFLQRRGISCEELLNIEYTPALQAKEGNLLPHDDWVSSVRAPYRNNAELLLTGSYDHCVRLWDGDSCLALGSFHREAVKEVALHPVAPASSKTGRKRTRLDGDFMFASASKDGSVAAWKLDSTSSHMQLLGSIQAHTDGVDSVAIAPGDGRLVATASWDTTVKVFNWEQMMEGDTVPSKKAPLVTFTDHSRPVLCSRFSAAHGAARLYSAGYDGHIKCLDTEAAQLQSQFKGDHPINRISVKPAGSSPAADLLLSACTDNRARLFDTRQKDVVKTFSGSCQWLYSVVWLWDAQEGDAEHSGGSLFAVASEDATVRVYDLRCTNTALLTLDAMHTDGVLDVTYVGQSIIASGGKDNKTRSFALSKEGLLS”, the “soluble on expression in E. coli” value is “not soluble”.

For “MRNQFDLELHELEQSFLGLGQLVLETASKALLALASKDKEMAELIINKDHAINQGQSAIELTCARLLALQQPQVSDLRFVISIMSSCSDLERMGDHMAGIAKAVLQLKENQLAPDEEQLHQMGKLSLSMLADLLVAFPLHQASKAISIAQKDEQIDQYYYALSKEIIGLMKDQETSIPNGTQYLYIIGHLERFADYIANICERLVYLETGELVDLN”, the “soluble on expression in E. coli” value is “soluble”.

On to “MSLNSIQHIRKAEIHVHLEATIGPDLCRKFAKRNKVTLTDDIFGSQYAYAWDDFYDFIKKYDLVTSVIHTPEDYRELTYSYLKECAKNNVLYVEAMISSTHAKLKGMSYHSFLEGVAEGSKQAEDEFGIISKYIMNGIRHLGPESVQKTAEEVLEFPHKDLVGFGLAGDELHFPPKLFTKTFDMLKEANFPITVHAGEWDGPENIRHAINLLHPTRLGHGVRSIEDPDLVKEIIDKDIILETCPTSNIATKIYEDYKSHPVKTLFDQGVKVTVNSDDPPFFNATIQGEYKVMEDLGLNEKELTSLTHNAIKYSFCDEENKNELLAKLNEGHHHHHH”, for which the “soluble on expression in E. coli” value is listed as “soluble”.

On to “APAHADHQITKRTDAENMYNTIQFLSQAPRVAGSPEELKAVRYIEQQFKSYGYHVEVQPFQFEGYTAPSEVTLKIGTEKKEGEAFTYSPNSDVTAELVYVGLGTTADVAGKDLNGKIALIQRGNISFADKVRNAAKQGAKAVIIYNNTDGKLNGTLGGSDASFVAAVGITKQEGDALAANLRAGEKITATVKVAGAEVKTLTSHNVIATKKPDANKKNTNDIIIIGSHHDSVEKAPGANDDASGVAVTLELARVMSKLKTDTELRFITFGAEENGLIGSKKYAASLSEDEIKRTIGMFQLDMVGSKDAGDLIMYTIDGKKNRVTDLGAAASSRLSGVLPYGQEGRSDHESFHALGIPAALFIHAPVEPWYHTPNDTLDKISKEKLDNVADIVGSAVYQAARPGELVIEPIDYPRRNVELQN”, for which the “soluble on expression in E. coli” value is “soluble”.

“MNDNTHTLPPRHLSVAPMLDWTDRHYRYLARQITRNTWLYSEMVNAGAIVYGDKDRFLMFNEGEQPVALQLGGSDPSDLAKAAKAAEAYGYNEVNLNCGCPSPRVQKGSFGACLMNEVGLVADCLNAMQDAVKIPVTVKHRIGVDRQTEYQTVADFVGTLRDKTACKTFIVHARNAWLDGLSPKENRDVPPLKYDYVYRLKQEFPGLEIIINGGITTNEAIAGHLQHVDGVMVGREAYHNPMVMREWDRLFYGDTRSPIEYADLVQRLYTYSQAQIQAGRGTILRHIVRHSLGLMHGLKGARTWRRMLSDATLLKDNDGSLILEAWKEVERANMRE”: the “soluble on expression in E. coli” value was “not soluble”.

Take “MGSDKIHHHHHHMSIDIDIIKARAKNEYRLSKVRGEAMISVRIPGGILPAHLLTVARDIAETWGNGQIHLTTRQKLAMPGIRYEDIDNVNAALEPFLREIEIELCDVQVEDTKAGYLAIGGRNIVACQGNRICQKANTDTTGLSRRLEKLVYPSPYHLKTVIVGCPNDCAKASMADLGIIGVAKMRFTADRCIGCGACVKACSHHAVGCLALKNGKAVKEESACIGCGECVLACPTLAWQRKPDQLWQVRLGGRTSKKTPRVGKLFLNWVTEDVIKQVIVNLYEFEKEMLGGKPIYLHMGHLIDKGGYLRFKERVLRGVQLNPEAMVAERIYWAEDESVARMHLKPAGH”: the “soluble on expression in E. coli” value was “not soluble”.

“MGSDKIHHHHHHMNLTHRQLTMFRAIMLHGNLGRAADACASSQPTLSRELGRLEQLLGFNLFDRVRGRLRPTVRALALMQEVERSFIGLEQIAARASELRTQATGRLRIACLPALAHALVPRALVYLSHTHPELGVSVHPLESPWLEQAMSEQRFDLGLSETQKAPAGVTLQPLLKVNEVAVLPRDHSLCRKARLQPRDFTGERFISLAVGDPYRTAIDAMFEDAKVHRVTLLETTSSVAVCAMVRQGLGVAIVNPFTAMELSGPDLVVRSLTVAIGYQVNMLLPEIAAPHPLQSVLADTVRKASADLSHLDQCFY”: the “soluble on expression in E. coli” value is on record as “not soluble”.

For “MFIESRELVMKHRIPVAKTERYWKGLEEGKVFKTVCKSCGKEHHPPRAECLCGGEVEWVEITGEGVVEAFTTVHTIPAGFEWHREPYTIAIARFGEVRVMGWAKEVRVGDVVRLKPGKDETGVWKVYFEVVLEHHHHHH”, the “soluble on expression in E. coli” value is recorded as “soluble”.

Turning to “MSTMGNEASYPAEMCSHFDNDEIKRLGRRFKKLDLDKSGSLSVEEFMSLPELRHNPLVRRVIDVFDTDGDGEVDFKEFILGTSQFSVKGDEEQKLRFAFSIYDMDKDGYISNGELFQVLKMMVGNNLTDWQLQQLVDKTIIILDKDGDGKISFEEFSAVVRDLEIHKKLVLIV”, the “soluble on expression in E. coli” value is given as “soluble”.

Regarding “MKYDLKYLSVPLPEEIQRVKEFGDFASADIAIDFWLTKELPQALKERLIIEKDVIKMMRMNEYPHSFAKADQMMRDTFQDYQTEELIRLKETGLVDWVYIDGEPYFQLRFLANLIKTNAAYVARLREAESNQLEILRKKELKENIEQMQKNGGRKVRTTIKATIQVKKEFERPGERVRVHLPLPKACQQQSEIEILATSPEATYIAAEDAPQRTLCFETILKENQTFTVEYCYVNRMVYQQLEENNVDKMQPSFDLEEQLPHIRFTPYLRNLADEIVGDESNPLKKARLIYDFVTTKIHYSFMREYFTISNISEYAATNLKGDCGVQAILFITLCRIAGIPAKWQSGLYVSTHYTGCHDWAQFYIKPYGWLFADLSFGGGAYRDGDRQRWNHYFGNLDVFRMVANSEIQADFQPAKMQLRADPIDNQRGEFEYENEGLPYACLIVSQERLSMEELPFD”, the “soluble on expression in E. coli” value is recorded as “not soluble”.

In the case of “MGHHHHHHSHMACAEFSFHVPSLEELAGVMQKGLKDNFADVQVSVVDCPDLTKEPFTFPVKGICGKTRIAEVGGVPYLLPLVNQKKVYDLNKIAKEIKLPGAFILGAGAGPFQTLGFNSEFMPVIQTESEHKPPVNGSYFAHVNPADGGCLLEKYSEKCHDFQCALLANLFASEGQPGKVIEVKAKRRTGPLNFVTCMRETLEKHYGNKPIGMGGTFIIQKGKVKSHIMPAEFSSCPLNSDEEVNKWLHFYEMKAPLVCLPVFVSRDPGFDLRLEHTHFFSRHGEGGHYHYDTTPDIVEYLGYFLPAEFLYRIDQPKETHSIGRD”, the “soluble on expression in E. coli” value was “soluble”.

“MSSHHHHHHSSGLVPRGSHMASMSDSEVNQEAKPEVKPEVKPETHINLKVSDGSSEIFFKIKKTTPLRRLMEAFAKRQGKEMDSLRFLYDGIRIQADQTPEDLDMEDNDIIEAHREQIGGSLMIIENSHVKKDDIWPSGGQMTVKDLTAKYTEGGNAILENISFSISPGQRVGLLGRTGSGKSTLLSAFLRLLNTEGEIQIDGVSWDSITLQQWRKAFGVIPQKVFIFSGTFRKNLDPYEQWSDQEIWKVADEVGLRSVIEQFPGKLDFVLVDGGCVLSHGHKQLMCLARSVLSKAKILLLDQPSAHLDPVTYQIIRRTLKQAFADCTVILCEHRIEAMLECQQFLVIEENKVRQYDSIQKLLNERSLFRQAISPSDRVKLFPHRNSSK”: the “soluble on expression in E. coli” value is given as “soluble”.

On to “MKRVVVTGIGMINALGLDKESSFKAICNGESGVNKITLFDATDFPVQIAAEVKNFDPLEVVDGKEVKKIDRFIQLGIKAAREAMQDAGFSEELDKEEFGIVSASGIGGLPNIEKNSIICSERGPRKISPFFIPSALVNMLGGLISIEHGLKGPNISCVTACAAGTHAIGEAYKSIALGNAKKMLVIGAEAAICPVGIGGFASMKALSTRNEDPQHASRPFDKERDGFVMGEGAGALVFEEYEEAKKRGATIYAELIGFGESADAHHITSPTLDGPLRAMKKALNMAGNPKVDYINAHGTSTPVNDKNETAAIKELFGNNIPLISSTKGQTGHCLGAAGAIEAVVSVMVLRDGVVPPTINQLVKDDECDLDYIPNISRKVDLKVVMSNSFGFGGTNGCVVFKKVD”, for which the “soluble on expression in E. coli” value is reported as “soluble”.

Take “MTNTGETKVIESHGTIKKIDSLSTMPYCGVETDENAVVEEKITLESGKSWSPKHYELLHERIERLIDEKQQFFSLEFFPPRFVNGVPNFLERVERLSEGGSVFVDMTWHMGSDPANVDKVTSSSSIAASMLDYCGVDTMLHMTCVQYNKADTLKHLEQAKAMGLRSILALRGDLPPGTELEDTHQFRALDMIRWIREEYGNYFSIGCAGYPLGHPQAPSYKADLMYLKAKCDAGANFVITQLFFEAETFEKFVRDCREIGITQPIIPGIMPIMGYESIKRIAKLSQLEIPQHILDDLEPIKHDDDAVQKYGTERCIEMCRRLLDNGTAPSIHLYTMNREGSIREILKSLGLWKLEGDRVFPWKNRSQHPIRCLESVRPIYWSFRPRSYITRTRDWDQFPNGRWGNSSSPAFGDVSSYYLSNLTTVRNADDRLAMFGANIESFEDVKRVFINYITQAPNADGVKVTVLPWTEAETGVQPETSLISEQLVWCNENGILTVNSQPSVNGAPSTDPLVGWGKPGGYCYQKAYLECFMTAELSDKLIQIIEREFPVRVNYHAINKDSTFDKTNSEETTPIAVTWGVFPGSEIAQPTVVDPLSFRAWRDEAYQMWMAQWGDFYPKESKSYGVIKAVHDEFRLVTLVDNDFQKPSVLFDVLQKALDELKK”: the “soluble on expression in E. coli” value is “not soluble”.
